# Patent publication US20040110131A1
# Target: TGFβ in media conditioned by B16F10 melanoma cells (murine (produced by murine B16F10 cells))
# Assay: cell-based or functional assay
row,Substance,level of active TGFβ as percent of total TGFβ (MLEC PAI-1 promoter luciferase assay) (% of total TGFβ)
1,"TSR2 recombinant protein (second type 1 repeat of human TSP-1 without the DKRFK sequence, amino acids 416-473)",4.8
2,"TSR2+RFK recombinant protein (second type 1 repeat of human TSP-1 with the RFK sequence, amino acids 411-473)",30
